From paper PMC4078008, “Exploring metabolic engineering design principles for the photosynthetic production of lactic acid by Synechocystis sp. PCC6803” (Biotechnology for Biofuels, 2014)
Where a chain is given by its changes, count along the chain named. In names and notes the source's numbering stands.

B1: L-LDH of B. subtilis (BsLDH) (Bacillus subtilis subsp. subtilis str. 168) (protein)
chain: MNKHVNKVALIGAGFVGSSYAFALINQGITDELVVIDVNKEKAMGDVMDLNHGKAFAPQPVKTSYGTYEDCKDADIVCICAGANQKPGETRLELVEKNLKIFKGIVSEVMASGFDGIFLVATNPVDILTYATWKFSGLPKERVIGSGTTLDSARFRFMLSEYFGAAPQNVHAHIIGEHGDTELPVWSHANVGGVPVSELVEKNDAYKQEELDQIVDDVKNAAYHIIEKKGATYYGVAMSLARITKAILHNENSILTVSTYLDGQYGADDVYIGVPAVVNRGGIAGITELNLNEKEKEQFLHSAGVLKNILKPHFAEQKVN
notes: codon-optimized gene, pET28b+ NdeI/HindIII, N-terminal His-tag (removal not mentioned), E. coli BL21(DE3), HisTrap-purified
B2: L-LDH of B. subtilis (BsLDH) (Bacillus subtilis subsp. subtilis str. 168; V38R) (protein)
chain: B1 chain with V38R
notes: as for B1

Substrate: CC(=O)C(=O)O
Test: purified protein
Format: biochemical, Bacillus subtilis
Details: 50 mM phosphate pH 6.5, 30 °C, no FBP, co-substrate NADH (general LDH assay)

Protein | Km [mM]
B1 | 4.34 ± 1.24
B2 | 4.00 ± 0.50
